B1: HA‐TAK1 [human] / Flag‐TRAF2 [not stated] (parent)
chain 1: MSTASAASSSSSSSAGEMIEAPSQVLNFEEIDYKEIEVEEVVGRGAFGVVCKAKWRAKDVAIKQIESESERKAFIVELRQLSRVNHPNIVKLYGACLNPVCLVMEYAEGGSLYNVLHGAEPLPYYTAAHAMSWCLQCSQGVAYLHSMQPKALIHRDLKPPNLLLVAGGTVLKICDFGTACDIQTHMTNNKGSAAWMAPEVFEGSNYSEKCDVFSWGIILWEVITRRKPFDEIGGPAFRIMWAVHNGTRPPLIKNLPKPIESLMTRCWSKDPSQRPSMEEIVKIMTHLMRYFPGADEPLQYPCQYSDEGQSNSATSTGSFMDIASTNTSNKSDTNMEQVPATNDTIKRLESKLLKNQAKQQSESGRLSLGASRGSSVESLPPTSEGKRMSADMSEIEARIAATTAYSKPKRGHRKTASFGNILDVPEIVISGNGQPRRRSIQDLTVTGTEPGQVSSRSSSPSVRMITTSGPTSEKPTRSHPWTPDDSTDTNGSDNSIPMAYLTLDHQLQPLAPCPNSKESMAVFEQHCKMAQEYMKVQTEIALLLQRKQELVAELDQDEKDQQNTSRLVQEHKKLLDENKSLSTYYQQCKKQLEVIRSQQQKRQGTS
chain 2: MAAASVTPPGSLELLQPGFSKTLLGTKLEAKYLCSACRNVLRRPFQAQCGHRYCSFCLASILSSGPQNCAACVHEGIYEEGISILESSSAFPDNAARREVESLPAVCPSDGCTWKGTLKEYESCHEGRCPLMLTECPACKGLVRLGEKERHLEHECPERSLSCRHCRAPCCGADVKAHHEVCPKFPLTCDGCGKKKIPREKFQDHVKTCGKCRVPCRFHAIGCLETVEGEKQQEHEVQWLREHLAMLLSSVLEAKPLLGDQSHAGSELLQRCESLEKKTATFENIVCVLNREVERVAMTAEACSRQHRLDQDKIEALSSKVQQLERSIGLKDLAMADLEQKVLEMEASTYDGVFIWKISDFARKRQEAVAGRIPAIFSPAFYTSRYGYKMCLRIYLNGDGTGRGTHLSLFFVVMKGPNDALLRWPFNQKVTLMLLDQNNREHVIDAFRPDVTSSSFQRPVNDMNIASGCPLFCPVSKMEAKNSYVRDDAIFIKAIVDLTGL

Variants of: B1
Assay: co-immunoprecipitation (anti-HA beads), IB quantified
Conditions: with Flag‐TRAF2; HEK293T cells cotransfected; mean+/-SD, n = 3; read off a plot

How did the response turn out when chain 1 H154A M196A was run?
Its response is 0.25.
